Test results reported in US6573081.

Columns and labels:
[1] = biological target: Porcine circovirus (PCV) grown in PS cell culture (porcine circovirus); assay: ELISA, PCV supernatant adsorbed to the plate at virus dilution 1:200
[2] = biological target: Porcine circovirus (PCV) grown in PS cell culture (porcine circovirus); assay: ELISA, PCV supernatant adsorbed to the plate at virus dilution 1:1600
[3] = biological target: Porcine circovirus (PCV) grown in PS cell culture (porcine circovirus); assay: ELISA, PCV supernatant adsorbed to the plate at virus dilution 1:6400
[4] = biological target: Porcine circovirus (PCV) grown in PS cell culture (porcine circovirus); assay: ELISA, PCV supernatant adsorbed to the plate at virus dilution 1:400
[5] = biological target: Porcine circovirus (PCV) grown in PS cell culture (porcine circovirus); assay: ELISA, PCV supernatant adsorbed to the plate at virus dilution 1:800
[6] = biological target: Porcine circovirus (PCV) grown in PS cell culture (porcine circovirus); assay: ELISA, PCV supernatant adsorbed to the plate at virus dilution 1:3200

Human immunoglobulin concentrate (Beriglobin P)
extinction [1]: > 2 extinction | extinction [2]: 0.726 extinction | extinction [3]: 0.381 extinction | extinction [4]: 1.98 extinction | extinction [5]: 1.17 extinction | extinction [6]: 0.268 extinction
